According to the DeepSol protein solubility set:

Assay: soluble on expression in E. coli; label from the status in PepcDB or PDB records

| Sequence | soluble on expression in E. coli |
| --- | --- |
| MGSDKIHHHHHHMDNKTQEKADFTLANAYGGVEMVRADYKGQAFSKHVHEGYTIGVIEKGAQRFYRSGEIHTADTNSIILVNADDVHTGESASSGGWQYRAMYPLPEHFENISNDLYDKGKFAPYFGSSVINDPLLTDQLRLLFNQVDNNASQLLTETIMYSLMLRLTLRHSSLRHVPKDISGSKAKLLRVKEYLDSYPAEDISLKQLAIIAGLSQYHFIRQFKKMFDLAPHSYQIQARLKKAKTLLKAGVKPVMVASDCGFHDQSHFNRHFKKALGTSPSKFQKQAVLYKN | not soluble |
| MPVDQSRQYLRIRDQLAADIAQGVLQVKLPSERELAERFLCTRITLREALQQLETEGLVYRENRRGWFVAPPRIRYNPTRTTGFMEYVSAQGRQPRTETLHAERRAAGAWLAKRMGLEDSAPVYFLQRRRWVDERPVLIELIALDAGWCPGLLDHDLDTSLMSLLRERFGLQPTRCQLAMHPTALNAAQAEPLQLAPGSPALYLERLSYAEGQRVVEFDQEFWRPDALEIVLDAAYPGA | not soluble |
| GMTRPAHPISRYPVPELAALPDDIRQRILEVQDKAGFVPNVFLTLAHRPDEFRAFFAYHDALMLKDGGLTKGEREMIVVATSAANQCLYCVVAHGAILRIYEKKPLVADQVAVNYLKADIPPRQRAMLDFALKVCKASHEVNEADFEALREHGFTDEDAWDIAAITAFFGLSNRMANTIGMRPNDEFFLMGRVPKSK | soluble |
| MSGYDRALSIFSPDGHIFQVEYALEAVKRGTCAVGVKGKNCVVLGCERRSTLKLQDTRITPSKVSKIDSHVVLSFSGLNADSRILIEKARVEAQSHRLTLEDPVTVEYLTRYVAGVQQRYTQSGGVRPFGVSTLIAGFDPRDDEPKLYQTEPSGIYSSWSAQTIGRNSKTVREFLEKNYDRKEPPATVEECVKLTVRSLLEVVQTGAKNIEITVVKPDSDIVALSSEEINQYVTQIEQEKQEQQEQDKKKKSNH | soluble |
| MEISTLLALSPLDGRYQQKVAALRPFFSEYALIRNRIHVEIEWFKALGNTPALTGASSLSTGAVVQLDQLVENFSVTDAEAVKSIETRTNHDVKAVEYWLKEKLTGDQETAAISE | not soluble |
| MNTAVKAAVAAALVMGVSSFANAAGSNTGTVTFTGTIEDSPCSIVVGDEHQTVNLGHIGTGSLMGGKESSKVDFHIGLENCAFTTEKEASTVFSAIGNESSANPGSVALMRIGGGEMAGSSIVIGNHLGSAIKLGDAYSENLTMNGSVAAAKQTLNFKAWVKGDSAATTIDTGEFSSTVNFTISYL | not soluble |
| MSLKTGTTLEKLAQVKTVAFDKTGTITQGKLVVDQVVPQGSQSADRLLQLAASAEQHSSHVLAQSLVAANRLPLLTATNVTETTAQGVVATINGQQVRAGKAAFVTSESITKPDQTAVYVAVDDVYQGYVSFNDRVRPEAATTMTRLRQAGVAHLMMISGDRQPIAEQIAQEVGLDQVHAECLPAGKIAVLDQLAANQRPVAMVGDGINDAPSLATADVGIAMGAHGATAASESADAVVLKDDLTRVSTARVIAQDTMRVARQSEGHHHHHH | soluble |
| MARHVFLPPLSVHRHRPHPLGVCGFESFQTLHPRKRAARPDSRPLYELCRHTCLQDFPKIRHPLCRHGTQQHHYARFGAPAPMAAYEKCGGTRRRTSRRQPPFRTRPATQIRLRMAVPPPTYWAEYSTDRLNKEKKNNKPHFVFCTVSHLRRLKGHDVLLTAFARALAQCPQLRLNIGGSGQEEQRLKQQAADLGITHAVTFLGALQPEAVLDLMRNSDAFVLASRTETFGVVYIEALSQGLPVIATRCGGAESIVSDGNGYLVPVDDDDALADALIKMCEHHSDFEPARLRENCLNEFGENAVIGRLIGIFRQAIAEYGKKIPVKYSGLTKIRTRRRSRRQYK | not soluble |
| MGFLEDKKRTLMNLELAIREGLVDEEIIPILNKINEIDNYYTTSSCIGRVGIMEIPKDKNPKLYSRWLGKWHHYASYDELFNALKNKKEGYIVFVMNSPILHIACKDIESAKKMLELAIHSGLKASSIKSISDKRVIVEILTTYKVDTPIGEDGEIFVDNNYLKFLLDYSNSKLKRAREILMRWANRLDELKK | soluble |
| MSLKRAIIIGATSGIGKEVAQRLLSEGWQIGIAGRRQSALEEFRQIAPEQIKIQSLDVTQEYSAGKLDALIHQLGGMDLFLLSSGIGFQNMELNMEIELNTARTNVEGFTRMVDTAFSYFRNNGGGHLAVISSIAGTKGLGVAPAYSATKRFQNTYIDALEQLSHLQKLDIHFTDIRPGFVATDLLNDGKHYPMLMKTDQVGRDIVRALHRKEGHHHHHH | not soluble |
| MTTAGYYAAVDWGTSSFRLWIIGEDGAVLAERRSAEGMTTAAKTGFHTILDGHLAAVSAPAHLPIIICGMAGARQGWKEAGYIETPAALAEIAGRATAIPDVDRDIRILPGLAQRDRRHPDVMRGEETQLLGAAAHLGAGSHLVCMPGTHSKWVRLADDRVEGFSTFMTGELFDTIARHTILSHAVAEADTFAAGSAAFTDAVSRTRENPALATNLLFSVRAGQLLHGTAAADARAQLSGTLIGLEIAGALAGSGSVDGVCLVGSGGLGTLYRTALESQGLNVRAVDADEAVRAGLSAAARAIWPL | not soluble |
| YTDRKNRIVEVDIASKAKRTVMQNPEGEFYEVNYSPDSQWITYTKSGANNMSVIYVYHLTSGKEYPVTE | not soluble |
| MRKRLLGDEHPDVAFSLNNLATVLAATNHPEEALSHRIEASNINDQIIRNIFAFSSESDRLSFLDKIRNNFDLFLSLVCNHLANSNRAKLAALDFVLKRKALTASALAAQNQAFYNGRYPQLQEKFSQLRDLSNQIIHLTFAVPETDDLATYQDNIRQLQSRHNHLQKQLAAQVPEIQLSEQVFDCQAIAAALPHNSILVEFVRFDVFDFQAVSANGETQWHPARYLAFILTAGKPNAVQMIDLGVADTIDRLIQAFRLQASDYTLPTLAWGKAPKLRVKSYNPTPAIELSQALLEPIRGLVKDCRHLIIAPDGNLNLVPFQVLPIDATSSRLLMDEYTISYLGVGREILRSKFQPSTGSISAPLIIADPDFDLSGTGDWENNTRLDVRSLQLSNQFTETGLLRAPGTRFLGESVAKKLPDAKLYLGAEALETRLTNSNCPKIMLIATHGLFQSDSQAQPVTKRRNLLSMERQRTTKVENPMLRSGLALAGANTWLAGGTLPLAAGKGFVFAQDIANLDLWANELTVLSACDTARGDIKIGEGVFGLRRAFAVAGTKTLVMSLWSVPDKVTALLMERFFDNLQSGMSRSEALDSAQNYIRNITVKELRASALGLEVLKELLAVKELSANSRIDCQEDDTPLEHPFYWGAWICQGNTNPLVNLEHHHHHH | not soluble |
| MSYRMFDYLVPNVNFFGPNAISVVGERCQLLGGKKALLVTDKGLRAIKDGAVDKTLHYLREAGIEVAIFDGVEPNPKDTNVRDGLAVFRREQCDIIVTVGGGSPHDCGKGIGIAATHEGDLYQYAGIETLTNPLPPIVAVNTTAGTASEVTRHCVLTNTETKVKFVIVSWRNLPSVSINDPLLMIGKPAALTAATGMDALTHAVEAYISKDANPVTDAAAMQAIRLIARNLRQAVALGSNLQAREYMAYASLLAGMAFNNANLGYVHAMAHQLGGLYDMPHGVANAVLLPHVARYNLIANPEKFADIAELMGENITGLSTLDAAEKAIAAITRLSMDIGIPQHLRDLGVKETDFPYMAEMALKDGNAFSNPRKGNEQEIAAIFRQAF | soluble |
